Assay results as given in US20250129168A1.
Where a chain is given by its changes, count along the chain named. Values belong to the binder of their own block, whether it stands above or below them.

Tests used:
[1] = target: recombinant human-Dectin-1 mouse Fc fusion (human) (UniProt Q9BXN2); experiment: biosensor, Fab, Ave of three
[2] = target: recombinant human-Dectin-1 mouse Fc fusion (human) (UniProt Q9BXN2); experiment: biosensor, Fab, first K dis column
[3] = target: recombinant human-Dectin-1 mouse Fc fusion (human) (UniProt Q9BXN2); experiment: biosensor, Fab, third K dis column
[4] = target: recombinant human-Dectin-1 mouse Fc fusion (human) (UniProt Q9BXN2); experiment: biosensor, Fab, second K dis column
[5] = target: recombinant human-Dectin-1 mouse Fc fusion (human) (UniProt Q9BXN2); experiment: biosensor, Fab, Ave K dis (n = 3); repeats Table 3
[6] = target: recombinant human-Dectin-1 mouse Fc fusion (human) (UniProt Q9BXN2); experiment: Octet BLI, response at X
[7] = target: recombinant human-Dectin-1 mouse Fc fusion (human) (UniProt Q9BXN2); experiment: Octet BLI, delta between the two X values

- koff [1]: 0.00396 s⁻¹
- koff [2]: 0.00841 s⁻¹
- koff [3]: 0.00204 s⁻¹
- koff [4]: 0.00143 s⁻¹
- koff [5]: 0.00396 s⁻¹
B1: 2M24A.23 hFab H1 (Fab, V domains shown)
VH: QVQLVQSGAEVKKPGASVKVSCKSSGYTFTDYYIHWVRQAPGQGLEWMGWINPNSGDTNYAQKFQGRVTMTRDTSISTAYMELSRLRSDDTAVYYCARNSGSYSFGYWGQGTLVTVSS
VL: DIQMTQSPSSVSASVGDRVTITCRASQGISSWLAWYQQKPGKAPKLLIFGASSLQSGVPSRFSGSGSGTDFTLTVSSLQPEDFATYYCQQAYSFPFTFGPGTKVDIE

- X = 290 [6]: 0.126
- X = 350 [6]: 0.0983
- delta [7]: 22%
B2: 2M24A.1.19 (Fab, V domains shown)
VH: B1 VH with V68I, M81L, Y94F, S104A
VL: B1 VL

- X = 340 [6]: 0.028
- X = 470 [6]: 0
- delta [7]: 100%
B3: 2M24A.1.13 hFab (Fab, V domains shown)
VH: B1 VH with V68I, M81L, Y94F, N99A
VL: B1 VL

- X = 340 [6]: 0
- X = 470 [6]: 0
B4: 2M24A.1.4 hFab (Fab, V domains shown)
VH: B1 VH with V68I, M81L, Y94F, Y103A
VL: B1 VL with Y92A

- X = 340 [6]: 0.49
- X = 470 [6]: 0.399
- delta [7]: 19%
B5: 2M24A.1.12 hFab (Fab, V domains shown)
VH: B1 VH with D57A, V68I, M81L, Y94F
VL: B1 VL

- X = 340 [6]: 0.305
- X = 470 [6]: 0.006
- delta [7]: 98%
B6: 2M24A.1.1 hFab (Fab, V domains shown)
VH: B1 VH with D31A, V68I, M81L, Y94F
VL: B1 VL with Y92A

- X = 340 [6]: 0
- X = 470 [6]: 0
B7: 2M24A.1.3 hFab (Fab, V domains shown)
VH: B1 VH with V68I, M81L, Y94F, N99A
VL: B1 VL with Y92A

- X = 290 [6]: 0.125
- X = 350 [6]: 0.114
- delta [7]: 8%
B8: 2M24A.1.21 (Fab, V domains shown)
VH: B1 VH with V68I, M81L, Y94F, G106A
VL: B1 VL

- X = 340 [6]: 0.331
- X = 470 [6]: 0.006
- delta [7]: 98%
B9: 2M24A.1.2 hFab (Fab, V domains shown)
VH: B1 VH with D57A, V68I, M81L, Y94F
VL: B1 VL with Y92A

- koff [1]: 0.0037 s⁻¹
- koff [2]: 0.00765 s⁻¹
- koff [3]: 0.00214 s⁻¹
- koff [4]: 0.00132 s⁻¹
- koff [5]: 0.0037 s⁻¹
B10: 2M24A.25 hFab H3 (Fab, V domains shown)
VH: B1 VH with S24A
VL: B1 VL

- koff [1]: 0.00264 s⁻¹
- koff [2]: 0.0053 s⁻¹
- koff [3]: 0.0016 s⁻¹
- koff [4]: 0.00102 s⁻¹
- koff [5]: 0.00264 s⁻¹
B11: 2M24A.26 hFab H4 (Fab, V domains shown)
VH: B1 VH with I34M
VL: B1 VL

- X = 290 [6]: 0.082
- X = 350 [6]: 0.0314
- delta [7]: 62%
B12: 2M24A.1.15 (Fab, V domains shown)
VH: B1 VH with V68I, M81L, Y94F, R98A
VL: B1 VL

- X = 340 [6]: 0.499
- X = 470 [6]: 0.418
- delta [7]: 16%
B13: 2M24A.1.11 hFab (Fab, V domains shown)
VH: B1 VH with D31A, V68I, M81L, Y94F
VL: B1 VL

- X = 340 [6]: 0.51
- X = 470 [6]: 0.398
- delta [7]: 22%
B14: 2M24A.1.7 hFab (Fab, V domains shown)
VH: B1 VH with D57A, V68I, M81L, Y94F
VL: B1 VL with Y92F

- X = 340 [6]: 0.018
- X = 470 [6]: 0
- delta [7]: 100%
B15: 2M24A.1.9 hFab (Fab, V domains shown)
VH: B1 VH with V68I, M81L, Y94F, Y103A
VL: B1 VL with Y92F

- X = 290 [6]: 0.12
- X = 350 [6]: 0.114
- delta [7]: 5%
B16: 2M24A.1.16 (Fab, V domains shown)
VH: B1 VH with V68I, M81L, Y94F, S100A
VL: B1 VL

- X = 290 [6]: 0.138
- X = 350 [6]: 0.124
- delta [7]: 9%
B17: 2M24A.1.18 (Fab, V domains shown)
VH: B1 VH with V68I, M81L, Y94F, S102A
VL: B1 VL

- X = 340 [6]: 0.106
- X = 470 [6]: 0
- delta [7]: 100%
B18: 2M24A.1.14 hFab (Fab, V domains shown)
VH: B1 VH with V68I, M81L, Y94F, Y103A
VL: B1 VL

- X = 290 [6]: 0.131
- X = 350 [6]: 0.112
- delta [7]: 15%
B19: 2M24A.1.22 (Fab, V domains shown)
VH: B1 VH with V68I, M81L, Y94F, Y107A
VL: B1 VL

- X = 340 [6]: 0.493
- X = 470 [6]: 0.39
- delta [7]: 21%
B20: 2M24A.1.6 hFab (Fab, V domains shown)
VH: B1 VH with D31A, V68I, M81L, Y94F
VL: B1 VL with Y92F

- X = 290 [6]: 0.0981
- X = 350 [6]: 0.0215
- delta [7]: 78%
B21: 2M24A.1.20 (Fab, V domains shown)
VH: B1 VH with V68I, M81L, Y94F, F105A
VL: B1 VL

- X = 290 [6]: 0.131
- X = 350 [6]: 0.129
- delta [7]: 1%
B22: 2M24A.1.17 (Fab, V domains shown)
VH: B1 VH with V68I, M81L, Y94F, G101A
VL: B1 VL

- X = 340 [6]: 0.042
- X = 470 [6]: 0
- delta [7]: 100%
B23: 2M24A.1.8 hFab (Fab, V domains shown)
VH: B1 VH with V68I, M81L, Y94F, N99A
VL: B1 VL with Y92F
